# Measured values: paper doi:10.1101/2020.07.01.182642v1
# Test system: Nc1ncnc2c1ncn2[C@@H]1O[C@H](COP(=O)(O)OP(=O)(O)OP(=O)(O)O)[C@@H](O)[C@H]1O
# Assay: Omnia kinase assay
# Format: biochemical, Homo sapiens
# Details: Sox peptide co-substrate, pH 7.5, 25 mM MgCl2, 25 °C
row,Substance,Km
1,CLK3 (R134-T484) (Homo sapiens; A319V),8.6 ± 4.2 µM
2,CLK3 (R134-T484) (Homo sapiens),58.9 ± 20.3 µM
